For 1 molecule, Kd and koff results are on record in patent US20160376363A1 (ALDER BIOPHARMACEUTICALS, published 2016).

The target of assay [1] is T1, human PACAP38 (human, C-terminal lysine is amidated; N-terminally or C-terminally biotinylated in the HTRF and cell binding assays).
T1 construct: Synthetic peptide (American Peptide; biotinylated forms from AnaSpec); also called PACAP 1-38; wild-type PACAP peptide (1-38)
T1 peptide: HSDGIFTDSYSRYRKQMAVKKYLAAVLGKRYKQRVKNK
Put plainly: SPR (ProteOn XPR36), antibody amine-coupled to chip, peptide as analyte, 1:1 Langmuir fit.

Assay [2] has as its target T2, human PACAP27 (human, C-terminal leucine is amidated; 125I-labelled in Example 10).
T2 construct: also called 125I-labelled PACAP27
T2 peptide: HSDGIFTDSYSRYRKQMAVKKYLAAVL
The assay is described as above.

B1: Ab21 (antibody, V domains shown)
VH: QSVEESGGRLVTPGTPLTLTCTVSGIDLSSYYMTWVRQAPGKGLEWVGFIDAGGSAYYATWAKGRFTISKASTTVDLKITSPTTEDTATYFCARDLDLWGPGTLVTVSS
VL: AAVLTQTPSPVSAAVGGTVSISCKSSESVYGDYLAWFQQKPGQPPKQLIYDASTLASGVPSRFKGSGSGTQFTLTISGVQCDDAATYYCAGGYVSAGVAFGGGTEVVVKR
What is called Kd is the free concentration of one partner at which half of the binding sites on the other are occupied at equilibrium, for simple one-to-one binding. Usually koff stands for the first-order rate constant of dissociation. Higher therefore signals a short-lived complex. In assay [1], B1 displayed an equilibrium dissociation constant (Kd) of 0.027 nM and a koff of 1e-05 s⁻¹. In addition, in assay [2], the Kd came to 0.013 nM and the koff amounted to 1e-05 s⁻¹.
